Measured values published in the DeepSol protein solubility set.

test: soluble on expression in E. coli; label from the status in PepcDB or PDB records

Row | Sequence | soluble on expression in E. coli
1 | MNENDGKNSAEKHNNSQDEGSIQPDKTQLDDVADDAEKKSEKSSNCMIWSQNVLKKAKISNMTREFRNNKEYKPNVTTSISEKMMDKNRYRHIFCGDDNRVVLKERDPSNDYIHASWMVMPDGFQFISTQGPIKNTIADFWHMVYTEKCHVIVMLCQYIEEDQEKCQRYFSDTSEKEYGDYRVKVVEKTVELWNPVKVTGIQVQKKNCPTKHMVYHYFYYDWHDQVAPLDPAPMIKMYKAVLNKSSSKPIVVHCSAGVGRTSTFVGIYLSQIMIRENSSVDMVEILKRLRTMRLGAVQSQLQYVYLVVLMIELFIDDKIIKRNANYESLLKKYADVTRKVTAAIMEEEEKRRQRKKREEEKEKEQEKESPATKEEKKKENGLKTNRQRDNREAPSKPPRKNPEELARSKLQGPRKLTLKNRDGNAEEPTAKDNEERSTAEDKSKNRQKSVYVKMPLSSKEKGSKHERAKQGARKNAARKAKKKPSVTGNY | not soluble
2 | MDNLLNEKKLTIFTSNEIQDNLNRVLKDYEQNGIIGLNGYLNQANRISLLNELEIMQKDAEQDIARYWNNKIIHFYSKDPLKPESVDREYVTEPYFQASSNKAHVFYEVIDNMRVVNRIGHGMHLINRYPMMQRAVYDSPVLLDLLKGIGFKKPICHLSVYIPKYPNGIGSEVRPHQESTFAFTEPQSVVVLWVALEDALIENACMYGVLGSNHWPLKWVSKVDRETKTRHFEQVHQLHIPDFMTEREFYTALEVKAGDALLFHGNFVHCSPMNTSKNSRKALSFQFIETYEVDYPETNWLYPPNKVYLYLEHHHHHH | not soluble
3 | MGSDKIHHHHHHVDQKEISDIVQRILQDGPQTQEDGYCLVRAQARREWSLRLNNGRFERVSTARERGIGVQAFTPEGASGFASVDALTVEAGREAMKRAMSLAEHNAKLGAELNRAIYDASPLKTEGPNPAKLEFEHFSLAELQEQVMFLHKRLLNRSPEHSWQTSYRQVEDSWCIGRTDGTLVSYVVPRAVLMHQGTVRVQGRAKSALVQRSGVDAGLLLLEKEDSDLERRGVERGEFAKQVCVAPHLPSGHYPLIIDYGLAKGLAHEAFGHAVESDHMQESVLGEAGKLRKGLQVARPGVHIIDGPLEGDWAYQPFSANGLVRETVEIVKDGVLQAGLGDIFSAHKAGMPVSGAGRAESYGHIPLPRMTNIRLLVDHVLPLAPASDLMAEISQVRQTLRAAGELHDERKHLLLLGYRGGQVNPKTGDFVFQCDGIIDVADPNLTIYQPSIFSGKILSALQAIRVGLGGGCYDAIGTCGKGGQSVPSSGGSHRYLLLDRDEYVTLGGEQ | not soluble
4 | MAFNDCFSLNYPGNPCPGDLIEVFRPGYQHWALYLGDGYVINIAPVDGIPASFTSAKSVFSSKALVKMQLLKDVVGNDTYRINNKYDETYPPLPVEEIIKRSEFVIGQEVAYNLLVNDCEHFVTLLRYGEGVSEQANRAISTVEFVTAAVGVFSFLGLFPKGQRAKYY | not soluble
5 | MGSDKIHHHHHHMLDKIELFILDMDGTFYLDDSLLPGSLEFLETLKEKNKRFVFFTNNSSLGAQDYVRKLRNMGVDVPDDAVVTSGEITAEHMLKRFGRCRIFLLGTPQLKKVFEAYGHVIDEENPDFVVLGFDKTLTYERLKKACILLRKGKFYIATHPDINCPSKEGPVPDAGSIMAAIEASTGRKPDLIAGKPNPLVVDVISEKFGVPKERMAMVGDRLYTDVKLGKNAGIVSILVLTGETTPEDLERAETKPDFVFKNLGELAKAVQ | not soluble
6 | MGRVFMVDLEGNIYICKLCKTHLSTDQDIMSKSFQCKNGRAYLFNNVVNVSVGEKEDRMMITGLHNVVDIFCVGCGSNVGWKYEFAHEKSQKYKEGKSVLELYKISGPHDSNDLVSDGDDA | not soluble
7 | MLNRFKSWRERGWVPIDAAAYELAWQRLGGSVATHPLVVARLSEFSGIPVRYLAWEQGGEVKAAIATWGRSLALSKDELKRHGKKGLFDLGNAELILPVAEGVQVPVRHRARYVSALNEGRISTLKSQTESLAMARTPEELSKKFRYNQRRELRLLEEAGGTVRPVSEFSSAELASMYCDLFQRRWGFEATGARDKAQVIELLRDLLIGSVVFLNDAPIAIQLVYRVEAPQWVSIEYVNGGVDPETRDFSPGSVLSFVNTQSAWEDARALGKALRFSFGRADREYKDRWCNPVPVFQL | not soluble
8 | ADPAECSIKVMCRFRPLNEAEILRGDKFIPKFKGEETVVIGQGKPYVFDRVLPPNTTQEQVYNACAKQIVKDVLEGYNGTIFAYGQTSSGKTHTMEGKLHDPQLMGIIPRIAHDIFDHIYSMDENLEFHIKVSYFEIYLDKIRDLLDVSKTNLAVHEDKNRVPYVKGCTERFVSSPEEVMDVIDEGKANRHVAVTNMNEHSSRSHSIFLINIKQENVETEKKLSGKLYLVDLAGSEKV | soluble
9 | FNSSINNIHEMEIQLKDALEKNQQWLVYDQQREVYVKGLLAKIFELEKKTETAAHSLP | soluble
10 | MGSDKIHHHHHHMQPLLQLQGITKSFPGVKALSGAALNVYPGKVMALVGENGAGKSTMMKVLTGIYRKDAGSIHFLGQEVDFNGPKASQEAGIGIIHQELNLIPQLTIAENIFLGREFTNRFGRIDWNKMYAEADKLLKRLNLRYDSRRMVGDLSIGDQQMVEIAKVLSFESKVIIMDEPTDALTDTETASLFSVINELQSQGCGIVYISHRLKEIFEICDDITVFRDGQFIGERPVSDLEEDTLIEMMVGRKLEDQYPRSNKAPGEVRLKVQNLSGPGVDSVSFTVRKGEILGVAGLMGAGRTELMKILYGALPRTGGNVTLDGRDVVTRKPQDGLANGIVYISEDRKRDGLVLGMSVKENMSLTALRYFSHAGGRLKHAEEQLTVADFIRLFNVKTPSMEQPIGLLSGGNQQKVAIARGLMTRPNVLILDEPTRGVDVGAKKEIYQLINQFKEEGLSIILVSSEMPEVLGMSDRIIVMHEGRLSGDFPIEQATQEALMAAAVGKQYGAKQE | not soluble
11 | MSAEKSSADTAKKTLTIYSTMSTDSERDTFRKLAAAFEKEHSDIHVSLHFPGNDYENMMRVRMAANDLPDLFDTHGWGKIRYGEYTADLRDMKWTQDLDPNLNSILKNKSGKVYAYPINQAKDGLAYNRNILDRYGIAPPETMDDFIKALRTIKEKSKGSIVPFWFAGYDKSSFAQYYDQFATPLLITDPAHNEKKQLINGTFQWSKFTYLSEILKQMQKEKLINIDAVTAKKSQLIELMAQNKIAFTMQGGTLGQDVAQINPNVKVGIIPTPAIHPGDDPIWIGGERYTLAAWKDSPQLKEAKDFIAFMARPANAKQMAEATSLPSGLTNVKADIFYANDYEYYQDVKVEPYFDRLYLPNGMWDVLGTVGQELAADILAPQDISQKLGREYKRLREQSETQGAENNELEHHHHHH | soluble
12 | MAFFRNCDPDDPLCIDECRLQKFEYLRWVRLLPSGDEDVLSYCASIGARLGKSEGYVSRRIDAFSMLLELSKVHELQLKMWHLDITRLMVIAQALSGVEKEVIEEIDAPLARFLTPKRDNQKMPGPKVIKKFIVDLLVRVEDAVEEVDSPQELAIDFYDAGNGKTGINAVVDNATASIFRDQLMRLAKAYECDDSSALLLMATQEGKSLTINLYKGDNFGELMTADGYRLSRKSVDLVFPNASRRSLEGVENVETRGYSFTPSMRAYIQARDGVCRFPGCSIRAVNCDIDHVEEYGLGGKTTARNAQCLCRRHHNLKTSKAVDCEISGDASVSWILEDGTKVVTLPEGIFSADRLFGQTFAQRVVDRIRRRKLRMRKNSCDDVPF | not soluble
13 | MGSDKIHHHHHHMSINVLIVDDSLSACRVLSRHFLLLDVDKVEFCRDARSAIRTLSKYSDDYQIVVVDLHMPEVDGIEFLMRLSKMEFKGGIIIASGMESRIVEAASQLVEASKLRLLGALMKPVTTEQLRVCVERYRLMAFQGNGVRHKGLMSIDEIRRAINSNKIIPYYQAQVDIASGKIKGFEVLCRLQQGTRLQLITPDKFIDVAECNNALNSLTTKLLNNAIPEWALISQFESCKQCHLSINLTPKQLNQSGWHTRLMQYCEQNLLSPSRLTVEITENQVLDKQRQHSTISQLRMNRIGVAIDDFGTGYTNLSQLCTLPISELKLDRSLVHGIHKDPVSQTILKSMQAISGKLGIHLVAEGVEDIHDLNYLEQIEDISLQGYLICRPKPYSELVRWLKARERLVQA | not soluble
14 | MIKRVFIDTDIILDVALAREPFFTASKIILAMAENNIIIGNISSNCVANIYYILRKSGGDNKARKFILNIVKYITVIVINHRNVLDSLRSKFSDFEDALQHSSAVENQCEYIITRNIEDYKNAKIKVLLPEEFIGMFLEHHHHHH | not soluble
15 | GPGSMDGRNGSKRARSEPANGPNQSNVGTSGVEEPHVEEVPARDPELERQLDRLNIDDNLKESLRGLSPSTRGEVMNDIIRSETIERASSLMEQANLLSLIELRRLPELMEEGMSSQHYRADVDDDSELHEFGQALEDMQADGQSPSPQRGRPHGMLHTPGPLILEFLRAFAAGTHAAFADAAGVSEHLNILSELAAQRAMGVTEDVDNMSYEELLELEDKIGYVSRGVKPEDVQKCVKDVPTPHEGNCVVCQCEWSDNAETAPAVVELNRCKHVFHRTCIREWLLKNKKCPVCTQEVV | soluble
16 | MRGSHHHHHHSNFAIILAAGKGTRMKSDLPKVLHKVAGISMLEHVFRSVGAIQPEKTVTVVGHKAELVEEVLAGQTEFVTQSEQLGTGHAVMMTEPILEGLSGHTLVIAGDTPLITGESLKNLIDFHINHKNVATILTAETDNPFGYGRIVRNDNAEVLRIVEQKDATDFEKQIKEINTGTYVFDNERLFEALKNINTNNAQGEYYITDVIGIFRETGEKVGAYTLKDFDESLGVNDRVALATAESVMRRRINHKHMVNGVSFVNPEATYIDIDVEIAPEVQIEANVILKGQTKIGAETVLTNGTYVVDSTIGAGAVITNSMIEESSVADGVTVGPYAHIRPNSSLGAQVHIGNFVEVKGSSIGENTKAGHLTYIGNCEVGSNVNFGAGTITVNYDGKNKYKTVIGDNVFVGSNSTIIAPVELGDNSLVGAGSTITKDVPADAIAIGRGRQINKDEYATRLPHHPKNQ | soluble
17 | MASINLIKSLKLYKEKIWSFDFSQGILATGSTDRKIKLVSVKYDDFTLIDVLDETAHKKAIRSVAWRPHTSLLAAGSFDSTVSIWAKEESADRTFEMDLLAIIEGHENEVKGVAWSNDGYYLATCSRDKSVWIWETDESGEEYECISVLQEHSQDVKHVIWHPSEALLASSSYDDTVRIWKDYDDDWECVAVLNGHEGTVWSSDFDKTEGVFRLCSGSDDSTVRVWKYMGDDEDDQQEWVCEAILPDVHKRQVYNVAWGFNGLIASVGADGVLAVYEEVDGEWKVFAKRALCHGVYEINVVKWLELNGKTILATGGDDGIVNFWSLEKAA | soluble
18 | MGGGHHEPFKIPNYSIYSNFRDFPQLAQHEKRLAQIGLKDPWIRNYVYLYDRKYPHVVGQWAHFKKLILPGWKAGVAFTAALIFVEEAYQYKTHGTTSWDGHH | not soluble
19 | MGSDKIHHHHHHMNNKIYFTPGPSELYPTVRQHMITALDEKIGVISHRSKKFEEVYKTASDNLKTLLELPSNYEVLFLASATEIWERIIQNCVEKKSFHCVNGSFSKRFYEFAGELGREAYKEEAAFGKGFYPADITVPADAEIICLTHNETSSGVSMPVEDINTFRDKNKDALIFVDAVSSLPYPKFDWTKIDSVFFSVQKCFGLPAGLGVWILNDRVIEKSKALLAKRKSIGTYHTIPSMLEKARVNQTPETPNAMNIFLLGKVTGDMLQISADGIRKQTEEKAALINTYIESSKVFSFGVEDAKLRSMTTIVANTTMLPGEINKILEPFDMAVGAGYGSKKETQIRIANFPAHSLEQVHKLVQTLKEKIG | not soluble
20 | MKHTTKQMEILSDIRTLLHKKEEHLKRQNEKFLRETGVSSMSLSELHVIECIGKNGLMNVTAITTEMGMTKGAISKICTKLFQKQFVEKLQMLDNQKEIFFSLTESGNEIYKAHEKLHKQAEEKWLLLLDGYTKEEQDFIQRFIKDVSGHLEI | not soluble
21 | MEVVIIAFLTQKEFEDLGFDEVEDFEKMEKRASHAVNLYCRNRYDYKDLKKEIALVQKAVKRAIAYQIAYLNDSGVMTAEDKQSFAGISLGRTSISYTVGHGQGSQQKTLADRFNLCLDAENELLAVGLGYTGISYDR | not soluble
